Experimental data as given in US5639728A, “Antineoplastic peptide” (priority 1993, dated 1997).

Tests used:
[1] = tested on: Meth A mouse sarcoma cells; assay: Antitumor effect on Meth A mouse sarcoma transplanted into Balb/c mice; type: in vivo; conditions: for Inhibition rate (tumor growth restriction rate): day 21
Protocol: (§1) The following experiments were performed in order to calculate a therapeutic index (ratio of toxicity and effectiveness). 2×10^5 Meth A mouse sarcoma cells were transplanted into the dorsal subcutis of 6-week-old female Balb/c mice in single groups comprising from 5 to 10 animals. Seven days after the tumor transplant, the tested substance was dissolved in physiological saline (9.9×10^7 units/ml, 5×10^7 units/mg), and this solution was administered intravenously to the mice twice per week; a total five times. In a control group, physiological saline alone was administered intravenously.
When 21 days following the transplant had passed, surviving animals were sacrificed, and tumors were excised. The excised tumors were weighed, and a mean tumor weight was calculated in each group. The mean tumor weight in each administration group was compared with the mean tumor weight in the control group, and tumor growth restriction rates were determined.
(§2) Based on the tumor growth restriction rates obtained at various concentrations, concentrations restricting tumor growth by 50% (50% effective dose; ED50 mg/kg) were calculated. In each administration group, when toxicity deaths were observed, a 50% lethal quantity (50% lethal dose; LD50 mg/kg) was calculated. The therapeutic index was taken as the ratio of the 50% lethal quantity (LD50) to the 50% tumor growth restriction quantity (ED50)
(§3) Control Δ10LT^4) was the TNF disclosed in JJP, A, S60-185799.

[2] = Toxicity deaths (LD50) in Balb/c mice; type: in vivo, mouse; conditions: i.v. twice per week, five times; female Balb/c mice
Protocol: as §1, §2, §3

[3] = Effect on systolic blood pressure in SD rats; type: in vivo, rat; conditions: 1 mg/kg i.v., t-test *P < 0.05 for PΔ10LT, FΔ10LT, Δ10LT, LT, TNFα, -- for FPΔ10LT, MLT
Excerpt: Using 11-week-old Crj:CD(SD) rats 350 to 400 g in weight (Nihon Charles River), effects of each test substance on blood pressure were investigated as follows. The aforementioned rats were given ether anesthesia, hair in the right femoral region was cue with clippers, and the skin was cut open using a small scissors. Xylocaine jelly (local anesthetic) was then applied to the cut skin, and each blood vessel was carefully peeled using a tweezers. After the peeling, an SP10 cannulation tube equipped with a three-way cock (Natsume) was attached to arteries and veins, and 200 unit/ml heparin solution was injected therefrom.
After insertion, the skin was sutured using an automatic stitcher, and the rats were secured to a stationary platform (Natsume, Boormann cage). After securing, air in the three-way cock of the arterial cannula was completely removed, and a polygraph (Nihon Denki Sanei, Model 363 System) pressure transducer was connected. After connection, the polygraph was set up, blood pressure measurement was begun, and when blood pressure and heart rate had stabilized, each tested substance used in the foregoing antitumor effect testing was administered by intravenous injection, and 24 hour systolic blood pressure was measured after administration. […]

[4] = previously known; cited from earlier work

With TNFα the “Inhibition rate (tumor growth restriction rate)” value ([1]; 0.23 mg/kg i.v. twice per week, five times) was 43.3%, the “Inhibition rate (tumor growth restriction rate)” value ([1]; 0.94 mg/kg i.v. twice per week, five times) was 86.5% and the “ED50 (50% tumor growth restriction)” value ([1]; i.v. twice per week, five times, Meth A, female Balb/c mice) was 0.31 mg/kg. For the same molecule, the “Treatment coefficient (LD50/ED50)” value ([1]; therapeutic index, LD50/ED50) was 3.5, the LD50 [2] was 1.08 mg/kg and the “Decrease of blood pressure (% of the control value) 24 hours after administration” value [3] was -9.6%. For the same molecule, the “hypotensive effect, in words” value [4] was “hypotension is a side effect”.

B1: LT: native-form human lymphotoxin (LT) (protein, UniProt P01374 35-205, looked up)
Lymphotoxin-alpha: LPGVGLTPSAAQTARQHPKMHLAHSTLKPAAHLIGDPSKQNSLLWRANTDRAFLQDGFSLSNNSLLVPTSGIYFVYSQVVFSGKAYSPKATSSPLYLAHEVQLFSSQYPFHVPLLSSQKMVYPGLQEPWLHSMYHGAAFQLTQGDQLSTHTDGIPHLVLSPSTVFFGAFAL
In the case of B1, the “Decrease of blood pressure (% of the control value) 24 hours after administration” value [3] is given as -10.1% and the “hypotensive effect, in words” value [4] is given as “also has a hypotensive effect”.
